Biological target: LIMD1 (UniProt Q9UGP4)
Test: co-IP of Xpr-LIMD1 with EYFP-AGO2
Conditions: reference: wild type; sites S387

## AGO2 (from UniProt Q9UKV8) S387A
  binding against the reference: weaker

— article PMC5507773
